From article PMC4826903 (Science (New York, N.Y.), 2015)

Molecular target: the molecule itself

B1: Nsp1•Nup49•Nup57 channel nup hetero-trimer (CNT) (complex, Chaetomium thermophilum)
chain 1: MDEIITRWATDLAKYQKEFKEQAAKVMEWDRLLVENGEKIQKLYTSTYEAERASNEIERQLSNVESQQEELTAWLDRYERELDELYAKQMGSAAGEQAAGPDQERERTYKLAEKLTDQLDEMGKDLAKMIKEINDMSNTLSKGSKPDDPLTQIVRVLNGHLAQLQWIDTNAAALQAKVAAAQKAAGSMGANVPGTETDAAESFYRSYR
chain 2: EALQQEIAKIDEEIQKCIRDKEAVDAFLPAHGEQLAAIPTDVNFVTRKSEGAHNALSSDILAIDQLRELVKQDADNARLSFKAIDNLKLPMQYHQAGLWSKQMGGAGTAGASGASADADGQSNADLISYFSKTADEMEEMMKKFEKTITEIEAHLTGVEAHAMAMQNVAAQSRNAAQGGVDERVYELAAVLREFEESILKVAGVVGGVKEGVTELQLRDFMGHGS
chain 3: YQKPIPEQIKLIVDKWNPNHPNCAFKTYLYNKVDEHTVPLYGPGPNEDPKEWEEALQRKPAPNFIPVLCSGFPSIVARLMLQRRVITEFNNKLHQINASLDAILSRHDLDHTVRAFNARRRHAELSRRCLHLAARVQVLRNRGYALSGDEDELKQKLQQIDKTLNDPAQGSRLEELWSRLIVLRGYAEDLKDQINQAGITESDGLGEEIEAKAKKILEDYDKQLQHLKKQVEEAKKDFEEWEKQHN
- stoichiometry N: 2
